From patent US20200332015A1 (NAMAB THERAPEUTICS, published 2020)
Several values for one entry are separate records, joined by “and”; a condition that tells them apart may be missing. Identical values can stand only once. Like-named read-outs stand apart in the source and are kept apart here.

T1: mouse Fc-tagged mouse CD137 (R&D Systems, cat. 937-4B-050) (mouse, UniProt P20334 24-187)
T1 construct: also called mouse CD137-Fc chimeric protein
T1 sequence (looked up): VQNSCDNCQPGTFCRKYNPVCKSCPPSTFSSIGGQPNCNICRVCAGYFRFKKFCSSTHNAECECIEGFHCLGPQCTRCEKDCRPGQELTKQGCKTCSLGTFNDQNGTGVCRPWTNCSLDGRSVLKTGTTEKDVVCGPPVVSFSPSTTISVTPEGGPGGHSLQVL

B1: PRO885 (38-02-A04 sc01 scDb-i/33-03-G02 sc01 scDb-o) (bispecific antibody)
chain: DIQMTQSPSSLSASVGDRVTITCQASQSINDYLAWYQQKPGKAPKLLIYKASTLASGVPSRFSGSGSGTDFTLTISSLQPEDFATYYCQQGYIITDIDNVFGTGTKVTVLGGGGGSQVQLQESGPGLVKPSETLSLTCKVSGFSFSNSYWICWIRQPPGKGLEWIGCTFVGSSDSTYYANWAKGRVTISVDSSKNQFSLKLSSVTAADTAVYYCARHPSDAVYGYANNLWGQGTLVTVSSGGGGSGGGGSGGGGSGGGGSIQMTQSPSSLSASVGDRVTITCQASQSINNVLAWYQQKPGKAPKLLIYRASTLASGVPSRFSGSGSGTDFTLTISSLQPEDFATYYCQSSYGNYGDFGTGTKVTVLGGGGGSQVQLQESGPGLVKPSETLSLTCKVSGFSFSSGYDMCWIRQPPGKGLEWIGCVVAGSVDITYYASWAKGRVTISVDSSKNQFSLKLSSVTAADTAVYYCARKDAYSDAFNLWGQGTLVTVSS
notes: scDb, PDL1 x CD137; also called anti-PDL1xCD137 scDb
B2: PRO1124 (38-02-A04 sc06 Full scDb-i/33_03_G02 scDb-o) (bispecific antibody)
chain: DIQMTQSPSSLSASVGDRVTITCQASQSINDYLAWYQQKPGKAPKLLIYKASTLASGVPSRFSGSGSGTDFTLTISSLQPEDFATYYCQQGYIITDIDNVFGTGTKVTVLGGGGGSQVQLQESGPGLVKPSETLSLTCKASGFSFSNSYWICWVRQPPGKGLEWIGCTFVGSSDSTYYANWAKGRVTISKDSSKNQVSLKLSSVTAADTAVYFCARHPSDAVYGYANNLWGQGTLVTVSSGGGGSGGGGSGGGGSGGGGSLQMTQSPSSLSASVGDRVTITCQASQSINNVLAWYQQKPGKPPKLLIYRASTLASGVPSRFSGSGSGTDFTLTISSLQPEDFATYYCQSSYGNYGDFGTGTKVTVLGGGGGSQVQLQESGPGLVKPSETLSLTCKVSGFSFSSGYDMCWIRQPPGKGLEWIGCVVAGSVDITYYASWAKGRVTISVDSSKNQFSLKLSSVTAADTAVYYCARKDAYSDAFNLWGQGTLVTVSS
notes: scDb; also called PR01124
B3: PRO951 (38-27-C05 sc02 scDb-i/33-03-G02 sc01 scDb-o) (bispecific antibody)
chain: DIQMTQSPSSLSASVGDRVTITCQASQSINDYLAWYQQKPGKAPKLLIYKASTLASGVPSRFSGSGSGTDFTLTISSLQPEDFATYYCQQGYIITDIDNVFGTGTKVTVLGGGGGSEVQLVESGGGLVQPGGSLRLSCAASGFSFNNDYDMCWVRQAPGKGLEWIGCIDTGDGSTYYASWAKGRFTISRDNSKNTVYLQMNSLRAEDTAVYYCAREAASSSGYGMGYFDLWGQGTLVTVSSGGGGSGGGGSGGGGSGGGGSIQMTQSPSSLSASVGDRVTITCQSSQSVYDNNWLAWYQQKPGKAPKLLIYRASNLASGVPSRFSGSGSGTDFTLTISSLQPEDFATYYCQGTYLSSNWYWAFGTGTKVTVLGGGGGSQVQLQESGPGLVKPSETLSLTCKVSGFSFSSGYDMCWIRQPPGKGLEWIGCVVAGSVDITYYASWAKGRVTISVDSSKNQFSLKLSSVTAADTAVYYCARKDAYSDAFNLWGQGTLVTVSS
notes: scDb, PDL1 x CD137

Assays:
[1] = target: T2, human CD137 expressed on Jurkat cells (human, UniProt Q07011 24-255); assay: cell-based or functional assay
[2] = target: T2, human CD137 expressed on Jurkat cells; assay: cell-based or functional assay; remark: listed apart in the source
[3] = target: T2, human CD137 expressed on Jurkat cells; assay: cell-based or functional assay; remark: listed apart in the source
[4] = target: T2, human CD137 expressed on Jurkat cells; assay: cell-based or functional assay; remark: listed apart in the source
[5] = target: T2, human CD137 expressed on Jurkat cells; assay: cell-based or functional assay; remark: listed apart in the source
[6] = target: T2, human CD137 expressed on Jurkat cells; assay: cell-based or functional assay; remark: listed apart in the source
[7] = target: T2, human CD137 expressed on Jurkat cells; assay: cell-based or functional assay; remark: listed apart in the source
[8] = target: T2, human CD137 expressed on Jurkat cells; assay: cell-based or functional assay; remark: listed apart in the source
[9] = target: T3, cynomolgus monkey Fc-tagged CD137 (R&D Systems, cat. 9324-4B-100) (cynomolgus monkey, UniProt A9YYE7 24-186); assay: SPR T200, antigen-Fc captured, molecule as analyte
T3 construct: also called cynomolgus CD137-Fc chimeric protein
T3 sequence (A9YYE7 entry or part of it): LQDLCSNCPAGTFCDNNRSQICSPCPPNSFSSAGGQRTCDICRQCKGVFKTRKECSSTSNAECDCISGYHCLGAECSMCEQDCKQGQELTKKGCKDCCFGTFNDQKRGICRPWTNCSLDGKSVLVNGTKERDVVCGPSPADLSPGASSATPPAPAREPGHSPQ
How it was run: (§1)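 Apparent KD, ka and kd come from a one-to-one Langmuir model. Species Fc proteins were captured on an immobilized anti-Fc surface, and analyte at 0.12-90 nM (three-fold series) was flowed 3 min with 10-min dissociation; surfaces were stripped with 3 M MgCl₂.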

[10] = target: T1, mouse Fc-tagged mouse CD137 (R&D …); assay: SPR T200, antigen-Fc captured, molecule as analyte
How it was run: as §1

[11] = target: T4, Fc tagged human CD137 (R&D Systems, cat. 838-4B-100) (human, UniProt Q07011 24-186); assay: SPR T200, antigen-Fc captured, molecule as analyte
T4 construct: also called CD137 Fc chimera; human CD137-Fc chimeric protein
How it was run: as §1

[12] = target: human PDL1-Fc chimeric protein (human, UniProt Q9NZQ7 19-238, limits assumed); assay: SPR T200, antigen-Fc captured, molecule as analyte
How it was run: as §1

[13] = target: T2, human CD137 expressed on Jurkat cells; assay: cell-based or functional assay; remark: listed apart in the source
[14] = target: T2, human CD137 expressed on Jurkat cells; assay: cell-based or functional assay; remark: listed apart in the source
[15] = target: T4, Fc tagged human CD137 (R&D Systems, …); assay: SPR T200, antigen-Fc captured, molecule as analyte; remark: listed apart in the source

Row | Binder | EC50 NFkB-luciferase, HCC827 with IFNy [2] | max. activation, HCC827 +IFNg [3] | max. activation, HCC827 -IFNg [3] | max. activation, NF-kB reporter gene, CHO-PD-L1 [3] | rel. IC50 (urelumab/test), HCC827 +IFNg [3] | rel. IC50 (urelumab/test), HCC827 -IFNg [3] | rel. IC50 (urelumab/test), NF-kB reporter gene, CHO-PD-L1 [3] | EC50 NFkB-luciferase, CHO-PDL1 cells [4] | EC50 NFkB-luciferase, CHO-PDL1 cells [7] | Kd [9] | koff [9] | kon [9] | Kd [10] | koff [10] | Kd [11] | koff [11] | kon [11] | Kd [12] | koff [12] | kon [12] | also measured
1 | B1 | 0.00927 µg/mL and 0.00888 µg/mL and 0.00923 µg/mL | 134% | 111% | 499% | 16.3 ratio | 8.42 ratio | 6.75 ratio | 0.0117 µg/mL | 0.0063 µg/mL and 0.00513 µg/mL and 0.00486 µg/mL | 2.1 nM | 0.0007 s⁻¹ | 340000 M⁻¹ s⁻¹ | 600 nM | 0.18 s⁻¹ | 3.2 nM | 0.00076 s⁻¹ | 240000 M⁻¹ s⁻¹ | 0.065 nM | 0.00014 s⁻¹ | 2.1e+06 M⁻¹ s⁻¹ | EC50 NFkB-luciferase, HCC827 with IFNy stimulation [1]: 0.00751 µg/mL; EC50 NFkB-luciferase, HCC827 without IFNy stimulation [1]: 0.00952 µg/mL; EC50 NFkB-luciferase, CHO-PDL1 cells, 24 h [5]: 0.0138 µg/mL; EC50 NFkB-luciferase, CHO-PDL1 cells, 24 h, + HBA (so in the source) [5]: 0.0149 µg/mL; Top of curve fit, NFkB-luciferase, CHO-PDL1 cells, 24 h, + HBA (so in the source) [5]: 258; EC50 of IL-2 secretion, SEA stimulated PBMC, 96 h [6]: 0.0399 µg/mL; EC50 of IL-2 secretion, PBMC + CHO-PDL1 50,000 cells/well, anti-CD3 1 ug/ml [8]: 0.0129 µg/mL; EC50 of IL-2 secretion, PBMC + CHO-PDL1 50,000 cells/well, anti-CD3 2 ug/ml [8]: 0.052 µg/mL; EC50 of IL-2 secretion, PBMC + CHO-PDL1 100,000 cells/well, anti-CD3 1 ug/ml [8]: 0.0862 µg/mL; EC50 of IL-2 secretion, PBMC + CHO-PDL1 100,000 cells/well, anti-CD3 2 ug/ml [8]: 0.0419 µg/mL; EC50 of IL-2 secretion, PBMC + CHO-PDL1 200,000 cells/well, anti-CD3 1 ug/ml [8]: 0.0806 µg/mL; EC50 of IL-2 secretion, PBMC + CHO-PDL1 200,000 cells/well, anti-CD3 2 ug/ml [8]: 0.0301 µg/mL; kon [10]: 290000 M⁻¹ s⁻¹; EC50 NFkB-luciferase, CHO-PDL1 cells, 6 h [13]: 0.00784 µg/mL; EC50 NFkB-luciferase, CHO-PDL1 cells, 6 h, + HSA [13]: 0.00792 µg/mL; Top of curve fit, NFkB-luciferase, CHO-PDL1 cells, 6 h, + HSA [13]: 493; EC50 NFkB-luciferase, HCC827 without IFNy [14]: 0.0115 µg/mL and 0.0131 µg/mL and 0.013 µg/mL
2 | B2 | 0.00483 µg/mL | 188% | 113% | 229% | 22.4 ratio | 19.9 ratio | 23.5 ratio |  | 0.00368 µg/mL | 0.59 nM | 0.00033 s⁻¹ | 560000 M⁻¹ s⁻¹ | 11 nM | 0.0022 s⁻¹ | ≤ 0.015 nM | < 1e-05 s⁻¹ | 680000 M⁻¹ s⁻¹ | 0.067 nM | 0.0002 s⁻¹ | 3.1e+06 M⁻¹ s⁻¹ | Top of curve fit, NFkB-luciferase, HCC827 with IFNy [2]: 188; Top of curve fit, NFkB-luciferase, CHO-PDL1 cells [7]: 229; kon [10]: 200000 M⁻¹ s⁻¹; fold improvement of affinity against PRO885 [15]: > 200 fold; EC50 NFkB-luciferase, HCC827 without IFNy [14]: 0.00562 µg/mL; Top of curve fit, NFkB-luciferase, HCC827 without IFNy [14]: 113
3 | B3 |  |  |  | 432% |  |  | 2.35 ratio | 0.0337 µg/mL |  | 6.9 nM | 0.01 s⁻¹ | 1.5e+06 M⁻¹ s⁻¹ |  |  | 4.2 nM | 0.0063 s⁻¹ | 1.5e+06 M⁻¹ s⁻¹ | 0.07 nM | 0.00015 s⁻¹ | 2.2e+06 M⁻¹ s⁻¹ | binding result [10]: no binding (tested: 0.12-90 nM)
